This is an account of results in US9950027 (TXP PHARMA, dated 2018).

Assay [1] concerns the target T1, MC4r (human recombinant, CHO cells) (human, UniProt P32245 1-332).
T1 construct: whole, on cells
Description: radioligand binding, CHO cells expressing human MC4r; affinity as a multiple of αMSH's.

Assay [2] has as its target T2, MC3r (human recombinant, CHO cells) (human, UniProt P41968 1-323).
T2 construct: whole, on cells
Description: radioligand binding, CHO cells expressing human MC3r; affinity as a multiple of αMSH's.

Assay [3] has as its target T3, MC1r (murine B16-F1 cells) (murine, UniProt Q01727 1-315).
T3 construct: whole, on cells; also called MCr1
Description: radioligand binding, murine B16-F1 cells expressing MC1r; affinity as a multiple of αMSH's.

The target in assay [4] is T4, recombinant human type 2 Formyl peptide receptor (FPR2) (human, UniProt P25090 1-351).
T4 sequence (looked up): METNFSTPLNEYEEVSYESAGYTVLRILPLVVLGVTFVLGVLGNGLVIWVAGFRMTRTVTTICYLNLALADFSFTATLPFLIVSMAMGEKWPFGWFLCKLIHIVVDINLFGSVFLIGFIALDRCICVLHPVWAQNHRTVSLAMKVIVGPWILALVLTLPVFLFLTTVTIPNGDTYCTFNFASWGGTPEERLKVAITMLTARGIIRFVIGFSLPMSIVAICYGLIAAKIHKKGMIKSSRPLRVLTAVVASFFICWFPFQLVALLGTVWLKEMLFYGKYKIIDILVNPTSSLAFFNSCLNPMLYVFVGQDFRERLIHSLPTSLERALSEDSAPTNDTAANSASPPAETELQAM
Description: cell-based or functional assay.

Assay [5] deals with T2, MC3r (human recombinant, CHO cells). Description: displacement of 125I-NDP-αMSH, CHO cells expressing human MC3r; affinity as a multiple of αMSH's. The method, then: (§1) Murine B16-F1 cells expressing MCr1 are used for determination of binding affinity to and agonist activity against the MC1r. Human recombinant CHO cells expressing MC3r, MC4r or MC5r are used for determination of affinity to or agonist activity against the MC3r, MC4r and MC5r, respectively. […] The test items are tested in a concentration range of 10^-13 to 10^-5M.
For orientation: Loss of bound radioactivity is the signal in a displacement assay; it reports binding, not function.

For assay [6], the target named is T1, MC4r (human recombinant, CHO cells). Description: displacement of 125I-NDP-αMSH, CHO cells expressing human MC4r; affinity as a multiple of αMSH's. The method, then: as §1
The target in assay [7] is T5, human GLP-2 receptor (human, UniProt O95838 1-553).
T5 sequence (looked up): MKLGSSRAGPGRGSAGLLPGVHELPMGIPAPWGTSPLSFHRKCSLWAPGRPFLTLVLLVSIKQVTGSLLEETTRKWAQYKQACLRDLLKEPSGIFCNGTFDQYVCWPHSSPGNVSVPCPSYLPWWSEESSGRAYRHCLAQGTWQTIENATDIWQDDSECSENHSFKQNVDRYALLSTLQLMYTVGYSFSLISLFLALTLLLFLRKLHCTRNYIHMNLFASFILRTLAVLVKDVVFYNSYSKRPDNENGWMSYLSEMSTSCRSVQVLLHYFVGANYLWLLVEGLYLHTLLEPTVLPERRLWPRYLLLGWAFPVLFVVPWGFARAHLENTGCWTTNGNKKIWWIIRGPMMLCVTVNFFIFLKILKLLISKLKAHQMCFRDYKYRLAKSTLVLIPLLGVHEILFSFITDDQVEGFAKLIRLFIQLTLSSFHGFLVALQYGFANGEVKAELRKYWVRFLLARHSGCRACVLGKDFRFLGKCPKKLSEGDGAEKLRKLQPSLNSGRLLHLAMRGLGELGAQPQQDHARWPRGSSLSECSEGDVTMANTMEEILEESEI
Description: cell-based or functional assay.

Assay [8] deals with T3, MC1r (murine B16-F1 cells). Description: displacement of 125I-NDP-αMSH, murine B16-F1 cells expressing MC1r; affinity as a multiple of αMSH's. The method, then: as §1
Assay [9] deals with T1, MC4r (human recombinant, CHO cells). Description: displacement of 125I-NDP-αMSH, CHO cells expressing human MC4r (method of Example 2, not restated). The method, then: as §1
The target in assay [10] is T3, MC1r (murine B16-F1 cells). Description: displacement of 125I-NDP-αMSH, murine B16-F1 cells expressing MC1r (method of Example 2, not restated). The method, then: as §1
The target of assay [11] is T6, MC5r (human recombinant, CHO cells) (human, UniProt P33032 1-325).
T6 construct: whole, on cells
T6 sequence (P33032 whole entry): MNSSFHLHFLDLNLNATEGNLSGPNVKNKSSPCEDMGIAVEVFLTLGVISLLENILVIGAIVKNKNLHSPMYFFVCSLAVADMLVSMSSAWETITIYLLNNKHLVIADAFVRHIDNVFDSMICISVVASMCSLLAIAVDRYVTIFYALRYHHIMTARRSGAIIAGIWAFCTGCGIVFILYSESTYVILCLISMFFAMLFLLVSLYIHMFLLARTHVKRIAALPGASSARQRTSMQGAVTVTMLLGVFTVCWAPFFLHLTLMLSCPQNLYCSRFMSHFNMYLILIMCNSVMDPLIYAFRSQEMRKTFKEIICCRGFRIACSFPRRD
Description: displacement of 125I-NDP-αMSH, CHO cells expressing human MC5r (method of Example 2, not restated). The method, then: as §1

The target in assay [12] is T2, MC3r (human recombinant, CHO cells). Description: displacement of 125I-NDP-αMSH, CHO cells expressing human MC3r (method of Example 2, not restated). The method, then: as §1
Assay [13] addresses T1, MC4r (human recombinant, CHO cells). Description: cell-based or functional assay.
Assay [14] concerns the target T3, MC1r (murine B16-F1 cells). Description: cell-based or functional assay.
Assay [15] deals with T6, MC5r (human recombinant, CHO cells). Description: cell-based or functional assay.
Assay [16] shares this target. Description: displacement of 125I-NDP-αMSH, human recombinant CHO cells expressing MC5r. The method, then: as §1
The target of assay [17] is T1, MC4r (human recombinant, CHO cells). Description: displacement of 125I-NDP-αMSH, human recombinant CHO cells expressing MC4r. The method, then:
as §1

Assay [18] concerns the target T2, MC3r (human recombinant, CHO cells). Description: cell-based or functional assay.
Assay [19] deals with T1, MC4r (human recombinant, CHO cells). Description: cell-based or functional assay. This is another data set of the same source.
For assay [20], the target named is T3, MC1r (murine B16-F1 cells). Description: cell-based or functional assay. This is another data set of the same source.
For assay [21], the target named is T6, MC5r (human recombinant, CHO cells). Description: cell-based or functional assay. The source holds these as a separate data set.
For assay [22] the target is unchanged. Description: displacement of 125I-NDP-αMSH, CHO cells expressing human MC5r; affinity as a multiple of αMSH's. The method, then: as §1
Assay [23] has as its target T3, MC1r (murine B16-F1 cells). Description: displacement of 125I-NDP-αMSH, murine B16-F1 cells expressing MC1r. The method, then: as §1
Assay [24] addresses T2, MC3r (human recombinant, CHO cells). Description: displacement of 125I-NDP-αMSH, human recombinant CHO cells expressing MC3r. The method, then:
as §1

Like-named read-outs stand apart in the source and are kept apart here. Side-chain parts run from the residue outwards. [ ]: non-standard residue; d: D form. Ac‑(Lys-Ac)Lys‑Lys = branched amino acid probe attached to the ε-amino group of the lysine

T1 sequence (P32245 whole entry): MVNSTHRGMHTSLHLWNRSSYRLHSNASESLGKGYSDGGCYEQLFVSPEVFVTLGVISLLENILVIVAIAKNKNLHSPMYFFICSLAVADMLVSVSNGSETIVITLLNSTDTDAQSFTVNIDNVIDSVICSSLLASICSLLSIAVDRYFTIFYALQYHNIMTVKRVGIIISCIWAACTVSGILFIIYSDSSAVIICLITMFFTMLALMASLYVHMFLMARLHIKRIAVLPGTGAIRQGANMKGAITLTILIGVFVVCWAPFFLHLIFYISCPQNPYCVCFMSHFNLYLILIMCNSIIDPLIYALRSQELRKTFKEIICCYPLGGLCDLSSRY
T3 sequence (Q01727 whole entry): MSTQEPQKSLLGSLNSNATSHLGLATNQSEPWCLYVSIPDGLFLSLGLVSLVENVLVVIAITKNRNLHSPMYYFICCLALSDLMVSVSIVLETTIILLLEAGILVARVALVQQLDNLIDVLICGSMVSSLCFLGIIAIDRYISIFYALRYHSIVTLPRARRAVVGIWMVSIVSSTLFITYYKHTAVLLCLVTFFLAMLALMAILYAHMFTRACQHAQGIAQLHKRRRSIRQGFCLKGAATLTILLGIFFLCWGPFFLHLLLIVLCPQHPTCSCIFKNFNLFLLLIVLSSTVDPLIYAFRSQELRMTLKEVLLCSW
T2 sequence (P41968 whole entry): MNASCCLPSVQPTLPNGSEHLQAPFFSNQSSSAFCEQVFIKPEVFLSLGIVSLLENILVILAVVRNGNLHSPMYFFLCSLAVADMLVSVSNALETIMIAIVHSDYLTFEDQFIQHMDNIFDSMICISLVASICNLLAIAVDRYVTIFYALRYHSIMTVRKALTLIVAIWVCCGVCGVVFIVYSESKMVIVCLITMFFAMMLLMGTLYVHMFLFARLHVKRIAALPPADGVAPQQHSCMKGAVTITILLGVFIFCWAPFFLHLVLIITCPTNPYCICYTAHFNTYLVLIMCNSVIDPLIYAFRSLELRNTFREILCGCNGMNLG

B1: Analogue 7 (Example 3): Ac-(Ac-Lys-Lys)Lys-Tyr-Val-Nle-Gly-His-DPhe-Arg-Trp-Asp-Arg-Phe-Gly-NH2 (peptide)
peptide: KYVXGHFRWDRFG
modifications: alpha-amino group of Lys1 acetylated; Ac-Lys-Lys attached to the epsilon-amino group of Lys1; Nle at position 4 (written X); D-Phe at position 7; C-terminal amide
notes: BAP-modified γ-MSH analogue; X = norleucine
In the case of B1, the “MCr binding affinity relative to αMSH” value in assay [1] turned out to be 37 fold; in [2], 46 fold.

B2: Analogue 6 (Example 3): Ac-(Ac-Lys-Lys)Lys-Tyr-Val-Nle-Gly-His-Phe-Arg-Trp-Asp-Arg-Phe-Gly-NH2 (peptide)
peptide: KYVXGHFRWDRFG
modifications: alpha-amino group of Lys1 acetylated; Ac-Lys-Lys attached to the epsilon-amino group of Lys1; Nle at position 4 (written X); C-terminal amide
notes: as for B1
For B2, the “MCr binding affinity relative to αMSH” value stood at 2.9 fold in [1] and 4.6 fold in assay [2].

B3: Analogue 8 (Example 3): Ac-(Ac-Lys-Lys)Lys-Tyr-Val-Nle-Gly-His-DPhe-Arg-DTrp-Asp-Arg-Phe-Gly-NH2 (peptide)
peptide: KYVXGHFRWDRFG
modifications: alpha-amino group of Lys1 acetylated; Ac-Lys-Lys attached to the epsilon-amino group of Lys1; Nle at position 4 (written X); D-Phe at position 7; D-Trp at position 9; C-terminal amide
notes: as for B1
Consider B3, for which the “MCr binding affinity relative to αMSH” value in assay [1] worked out at 10.7 fold; in assay [2] it was 37 fold; in [3] it was 7.3 fold.

As for Ac-AMVSEFLK(Ac‑(Lys-Ac)Lys‑Lys)QAW-NH2, the “EC50, agonist activity (aequorin light emission)” value in assay [4] was determined as 1560 nM.

B4: Analogue 3 (Example 2): Ac-(Ac-Lys-Lys)Lys-Ser-Tyr-Ser-Nle-Glu-His-DPhe-Arg-Trp-Gly-Lys-Pro-Val-NH2 (peptide)
peptide: KSYSXEHFRWGKPV
modifications: alpha-amino group of Lys1 acetylated; Ac-Lys-Lys attached to the epsilon-amino group of Lys1; Nle at position 5 (written X); D-Phe at position 8; C-terminal amide
notes: BAP-modified α-MSH analogue; X = norleucine
As to B4, the “MCr binding relative to Control peptide 1 (αMSH)” value in assay [5] is 41 fold; in [6], 47 fold.

B5: Analogue 2 (Example 2): Ac-(Ac-Lys-Lys)Lys-Ser-Tyr-Ser-Met-Glu-His-Phe-Arg-Trp-Gly-Lys-Pro-(D-Val)-NH2 (peptide)
peptide: KSYSMEHFRWGKPV
modifications: alpha-amino group of Lys1 acetylated; Ac-Lys-Lys attached to the epsilon-amino group of Lys1; D-Val at position 14; C-terminal amide
notes: BAP-modified α-MSH analogue
As to B5, the entries for the “MCr binding relative to Control peptide 1 (αMSH)” value in assay [5] and in assay [6] were 3.3 fold and 8.5 fold, respectively.

With H-HADGSFSDEMNTILDNLAARDFINWLIQTKITDR-OH [GLP-2 (1-34) control peptide: …], the “EC50 (nM), cAMP production (HTRF)” value in [7] turned out to be 0.36 nM.

B6: Analogue 5 (Example 3): Ac-(Ac-Lys-Lys)Lys-Tyr-Val-Nle-Gly-His-Phe-Arg-DTrp-Asp-Arg-Phe-Gly-NH2 (peptide)
peptide: KYVXGHFRWDRFG
modifications: alpha-amino group of Lys1 acetylated; Ac-Lys-Lys attached to the epsilon-amino group of Lys1; Nle at position 4 (written X); D-Trp at position 9; C-terminal amide
notes: as for B1
As for B6, the “MCr binding affinity relative to αMSH” value in assay [1] is 2.8 fold; in [2] it was 38 fold; in [3] it was 1.9 fold.

Consider Ac-K([Lys-Lys-Ac])SSIISH[dF]RWGKPV-NH2 (BAP-modified α-MSH analogue) [Analogue 4 (Example 2): Ac-(Ac-Lys-Lys)Lys-Ser-Ser-Ile-Ile-Ser-His-DPhe-Arg-Trp-Gly-Lys-Pro-Val-NH2], for which the “MCr binding relative to Control peptide 1 (αMSH)” value in assay [8] was 9.4 fold; in assay [5], 42 fold; in assay [6], 53 fold.

B7: γ-MSH Analogue 1: Ac-(Ac-Lys-Lys)Lys-Tyr-Val-Met-Gly-His-Phe-Arg-DTrp-Asp-Arg-Phe-Gly-NH2 (peptide)
peptide: KYVMGHFRWDRFG
modifications: alpha-amino group of Lys1 acetylated; Ac-Lys-Lys attached to the epsilon-amino group of Lys1; D-Trp at position 9; C-terminal amide
Turning to B7, the Ki amounted to 150 nM in assay [9], 3.8 nM in [10], 215 nM in assay [11] and 15 nM in [12]. Further, the “EC50, cAMP accumulation (agonist activity)” value in [13] amounted to 252 nM; in assay [14], 68 nM; in assay [15], 555 nM.

B8: α-MSH Analogue 1: Ac-(Ac-Lys-Lys)Lys-Ser-Tyr-Ser-Met-Glu-His-Phe-Arg-Trp-Gly-Lys-Pro-Val-NH2 (peptide)
peptide: KSYSMEHFRWGKPV
modifications: alpha-amino group of Lys1 acetylated; Ac-Lys-Lys attached to the epsilon-amino group of Lys1 (branched amino acid probe Ac-(Ac-Lys-Lys)Lys-); C-terminal amide
Take B8: the Ki in assay [16] amounted to 193 nM; in [17], 26 nM; in assay [23], 1.2 nM; in assay [24], 24 nM. For the same molecule, the “EC50, cAMP accumulation (agonist activity)” value in assay [18] amounted to 53 nM; in [19], 18 nM; in assay [20], 8.9 nM; in assay [21], 625 nM. Further, the “MCr binding relative to Control peptide 1 (αMSH)” value in [8] turned out to be 4 fold; in [22], 2 fold.

Broadly, the Ki is the equilibrium dissociation constant of an inhibitor or competing ligand from its target.
